Molecular target: human thrombin (human) (UniProt P00734)
Assay: cell-based or functional assay

thrombin inhibition (residual thrombin activity by chromogenic assay); 1 µM dose, wall shear rate 2,000 sec^-1: > 85%
Substance: recombinant DES.N135A ATIII (from UniProt P01008 33-464)

Reference: US20070259809A1
